From US20210071139A1

Tests used:
TOX [1] = biological target: TOX (UniProt Q66JW3); experiment: anti-TOX IP from EL4 nuclear extract, LC-MS/MS, MiST vs IgG control
TOX [2] = biological target: TOX (UniProt Q66JW3); experiment: TOX co-IP from EL4 nuclear extract, LC-MS/MS, MiST

Sequence of TOX (Q66JW3 whole entry): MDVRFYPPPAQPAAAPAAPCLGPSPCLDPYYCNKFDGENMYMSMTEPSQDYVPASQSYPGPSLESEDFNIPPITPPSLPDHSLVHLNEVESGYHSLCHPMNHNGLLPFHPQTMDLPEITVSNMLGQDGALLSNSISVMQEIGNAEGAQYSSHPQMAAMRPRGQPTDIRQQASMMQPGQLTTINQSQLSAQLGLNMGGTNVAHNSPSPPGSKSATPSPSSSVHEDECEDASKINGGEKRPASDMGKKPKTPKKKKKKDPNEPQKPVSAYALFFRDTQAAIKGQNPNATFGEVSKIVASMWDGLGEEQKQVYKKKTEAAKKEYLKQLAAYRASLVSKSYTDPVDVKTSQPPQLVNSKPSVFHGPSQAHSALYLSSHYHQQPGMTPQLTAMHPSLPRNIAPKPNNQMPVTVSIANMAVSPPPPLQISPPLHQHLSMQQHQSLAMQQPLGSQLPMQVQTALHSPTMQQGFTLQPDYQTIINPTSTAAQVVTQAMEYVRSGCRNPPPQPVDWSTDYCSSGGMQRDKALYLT

Binder	Abundance (TOX [1])	MiST Score (TOX [1])	Reproducibility (TOX [1])	Specificity (TOX [1])	Abundance (TOX [2])	MiST Score (TOX [2])	Reproducibility (TOX [2])	Specificity (TOX [2])
Cwc27 (protein, UniProt Q3TKY6 2-469, looked up) Spliceosome-associated protein CWC27 homolog: SNIYIQEPPTNGKVLLKTTAGDIDIELWSKEAPKACRNFIQLCLEAYYDNTIFHRVVPGFIVQGGDPTGTGTGGESIYGAPFKDEFHSRLRFNRRGLVAMANAGPHDNGSQFFFTLGRADELNNKHTIFGKVTGDTVYNMLRLTEVDIDDEERPRNPHRIKSCEVLFNPFDDITPREIKKPKNEKPEEEVKKLKPKGTKNFSLLSFGEEAEEEEEEVNRVSQSMKGRSKSSHDLLKDDPHLSSVPAVESEKDDATGDLEDDGEDDSAERDEYMEDDEKNLMRERIAKRLKKDASASVKSAGDGEKKPASRSEELRKEARQLKRELLAAKQKKETAIKVEEGREEEEAAPDGAVAEYRREKQKYEALRKQQPKKGTSREDQTLALLSQFKSKLTQAITETPENSVPEAEVEDDEGWMSHVLQFEDKTRKVKDASMQDSDTFEIYDPRNPVNKRRREESKKLLREKKERR	1.14e-05	0.758	0.435	0.91				
Spty2d1 (protein, UniProt Q68FG3 1-682, looked up) Protein SPT2 homolog: MDFREILLIASKGQGVNHVPKRYSLAVGPPKKDPKVKGVQSAAVQAFLRRKEEELRQKALEEKKRKEELVKKRIELKHDKKARAMAKRTKDNFHGYDGIPVEEKTKKKQLVESHLNQGTDQEYDVEEEDFIDYNQAELDQDYEEEQEPPKAESKPKAPLKSAPSPMNFTDLLRLAEKKQFEPVEIKVVKKAEDRPLTAEELREREFLERKHRKKKPEPDAKLPPPVLKKAPSHKDIMGTKPSRGAGDRQLASKGLPFPQAEKKFRPSTASEKQAALSSPKSLPGERTKVGSGSSTQPSLREGHNRPVFNGAGKPRPSTCSPSVPKTPASGTQKSASEHKAKKPLPSHPSHSKPGPTVLSHNKSKSPGVRQPGSNSGSAPGQPNPGTARPTLSSGPVPRRQNGSSSSGPEQSAGGIRKLASNSHLSGRTLNGTNGPGRPASSSSGPGRPISGSAGSGRPVGSSGGPGQPVNNPHDLRRPMNSLSSPGRAVSGPGRSISGSIPAGRTVNSGPGRPVSSLGPGRAVSNPGLPTKPRCTVVSETISSKNIISRSSNGQINGMKPLLSGYRSAQGPQRLPFPTGYKRPREYEEDDDDEYDSEMDDFIEDEGEPQEEISKHIREIFGYDRKKYKDESDYALRYMESSWKEQQKEEAKSLRLGMQEDLEEMRREEEELKRRKAKKLKRH					1.04e-05	0.846	0.848	0.852
